Experimental data: patent US20250002587A1 (University of California, published 2025)
Changes are numbered by the printed parent chain. Where two headings read alike, the source gives them in different places.

Tests used:
[1] = target: T1, cell surface-expressed human αvβ8 (human, UniProt P06756 31-1048; P26012 43-769); assay: cell-based or functional assay
[2] = target: T1, cell surface-expressed human αvβ8; assay: FACS titration on SNB19 human astrocytoma cells
Method: (§1) The affinities of humanized, affinity-matured anti-αvβ8 IgGs (ADWA16-1, ADWA16-2, ADWA16-3, and ADWA16-4), a chimeric version of the parent ADWA16 murine IgG (ADWA16-chimera), and ADWA16 were measured on SNB19 human astrocytoma cells by FACS. IgGs were incubated at various concentrations with SNB19 cells for 1 hr at RT in PBS. Cells were washed twice with PBS and binding was detected by incubation with fluorescently-labeled anti-human (ADWA16-1, ADWA16-2, ADWA16-3, ADWA16-4, and ADWA16-chimera) or anti-mouse (ADWA16) secondary antibodies followed by two PBS wash steps and analysis by FACS. Binding affinities (shown in Table 3) were calculated using curve-fitting software.

[3] = target: T2, recombinant human αvβ8 (human, UniProt P06756 31-992; P26012 43-684); assay: bio-layer interferometry, IgG on anti-human Fab-CH1 tips, αvβ8 200 nM
T2 construct: Soluble recombinant heterodimer used as analyte at 200 nM in BLI
Method: (§2) The affinities of humanized, affinity-matured anti-αvβ8 IgGs (ADWA16-3 and ADWA16-3.2) and a chimeric version of the parent ADWA16 murine IgG (ADWA16-chimera) were measured for recombinant human and mouse αvβ8 using bio-layer interferometry. Anti-human Fab-CH1 tips were loaded with humanized anti-αvβ8 IgGs or chimeric ADWA16 followed by an association step with either human or mouse αvβ8 (200 nM) and a subsequent dissociation step. All steps were carried out in binding buffer (25 mM Tris, 0.15 M NaCl, 0.05% Tween-20, pH 7.5). Binding affinities (shown in Table 4) were calculated using curve-fitting software.

[4] = target: T3, recombinant mouse αvβ8 (mouse, UniProt P43406 31-988; Q0VBD0 43-681, limits assumed); assay: as above
T3 construct: Soluble recombinant heterodimer used as analyte at 200 nM in BLI
Method: as §2

[5] = target: T2, recombinant human αvβ8; assay: as above; remark: listed apart in the source
Method: (§3) The affinities of humanized, affinity-matured anti-αvβ8 IgGs (ADWA16-1, ADWA16-2, ADWA16-3, and ADWA16-4) and a chimeric version of the parent ADWA-16 murine IgG (ADWA16-chimera) were measured for recombinant human and mouse αvβ8 using bio-layer interferometry. Anti-human Fab-CH1 tips were loaded with humanized anti-αvβ8 IgGs (ADWA16-1, ADWA16-2, ADWA16-3, and ADWA16-4) or chimeric ADWA-16 followed by an association step with either human or mouse αvβ8 (200 nM) and a subsequent dissociation step. All steps were carried out in binding buffer (25 mM Tris, 0.15 M NaCl, 0.05% Tween-20, pH 7.5). Binding affinities (shown in Table 2) were calculated using curve-fitting software. FIGS. 3A-3E show association/dissociation curves for each antibody.

[6] = target: T3, recombinant mouse αvβ8; assay: as above; remark: listed apart in the source
Method: as §3

[7] = target: T1, cell surface-expressed human αvβ8; assay: FACS on SNB19 human astrocytoma cells, fluorescent secondary antibody
Method: (§4) The affinities of ADWA16-3.2 and ADWA11 were measured on SNB19 human astrocytoma cells by FACS. IgGs were incubated at various concentrations with SNB19 cells for 1 hour at RT in PBS. Cells were washed twice with PBS and binding was detected by incubation with fluorescently-labeled anti-human secondary antibodies followed by two PBS wash steps and analysis by FACS. Binding affinities were calculated using curve-fitting software.

[8] = target: T4, surface-expressed mouse αvβ8 on murine astrocytes (mouse, UniProt P43406 31-1044; Q0VBD0 22-767); assay: FACS titration on murine astrocytes
T4 construct: whole, on cells
Method: The affinities of ADWA16, ADWA11, and ADWA16-3.2 were measured on murine astrocytes by FACS. IgGs were incubated at various concentrations with the cells for 1 hr at RT in PBS. Cells were washed twice with PBS and binding was detected by incubation with fluorescently-labeled anti-human or anti-mouse secondary antibodies followed by two PBS wash steps and analysis by FACS.

[9] = target: T1, cell surface-expressed human αvβ8; assay: FACS titration on SNB19 human astrocytoma cells; Example 13 FACS on SNB19 cells; detected with anti-human secondary, ADWA11 format not stated
Method: as §4

[10] = target: T5, cell surface expressed human αvβ6 (SW480 cells transfected to express αvβ6) (human, UniProt P06756 31-1048; P18564 22-788); assay: flow cytometry on transfected SW480 cells
T5 construct: whole, on cells
Method: (§5) The binding of ADWA16 and ADWA16-3.2 to cell surface expressed human αvβ3, αvβ5, αvβ6, and αvβ8 was tested by FACS. Flow cytometry was performed with either ADWA16-3 or ADWA16-3.2 with mock transfected SW480 cells (that express only αvβ5 integrin). SW480 cells were also transfected to express αvβ3 or αvβ6. SNB19 cells expressed αvβ3, αvβ5, and αvβ8.

[11] = target: T6, cell surface expressed human αvβ3 (SW480 cells transfected to express αvβ3) (human, UniProt P06756 31-1048; P05106 27-788); assay: flow cytometry on transfected SW480 cells
T6 construct: whole, on cells
Method: as §5

[12] = target: T7, cell surface expressed human αvβ5 (mock transfected SW480 cells) (human, UniProt P06756 31-1048; P18084 24-799); assay: flow cytometry on mock transfected SW480 cells (express only αvβ5); panel head 'A09 SW antihuman con'
T7 construct: whole, on cells
Method: as §5

[13] = target: T1, cell surface-expressed human αvβ8; assay: FACS titration on SNB19 human astrocytoma cells; Table 3 FACS series on SNB19 cells, run beside ADWA16, 16-chimera and 16-1 to 16-4
Method: as §1

[14] = target: T1, cell surface-expressed human αvβ8; assay: FACS titration on SNB19 human astrocytoma cells; Example 7 FACS series on SNB19 cells, run beside ADWA16-3.2
Method: as §4, with “humanized, affinity-matured,” for “ADWA16-3.2”, “N-glycosylation site removed anti-αvβ8 IgGs (ADWA16-3 and ADWA16-3.2)” for “ADWA11”, “hr” for “hour”, “FACS.” for “FACS. Binding affinities were calculated using curve-fitting software.”

[15] = target: T1, cell surface-expressed human αvβ8; assay: FACS titration on SNB19 human astrocytoma cells; Example 13 FACS series on SNB19 cells, run beside ADWA11
Method: as §4

[16] = target: T1, cell surface-expressed human αvβ8; assay: FACS titration on SNB19 human astrocytoma cells; Example 7 FACS series on SNB19 cells, run beside ADWA16-3
Method: as §4, with “humanized, affinity-matured,” for “ADWA16-3.2”, “N-glycosylation site removed anti-αvβ8 IgGs (ADWA16-3 and ADWA16-3.2)” for “ADWA11”, “hr” for “hour”, “FACS.” for “FACS. Binding affinities were calculated using curve-fitting software.”

T1 sequence (P06756 31-1048, chain 1 of 2): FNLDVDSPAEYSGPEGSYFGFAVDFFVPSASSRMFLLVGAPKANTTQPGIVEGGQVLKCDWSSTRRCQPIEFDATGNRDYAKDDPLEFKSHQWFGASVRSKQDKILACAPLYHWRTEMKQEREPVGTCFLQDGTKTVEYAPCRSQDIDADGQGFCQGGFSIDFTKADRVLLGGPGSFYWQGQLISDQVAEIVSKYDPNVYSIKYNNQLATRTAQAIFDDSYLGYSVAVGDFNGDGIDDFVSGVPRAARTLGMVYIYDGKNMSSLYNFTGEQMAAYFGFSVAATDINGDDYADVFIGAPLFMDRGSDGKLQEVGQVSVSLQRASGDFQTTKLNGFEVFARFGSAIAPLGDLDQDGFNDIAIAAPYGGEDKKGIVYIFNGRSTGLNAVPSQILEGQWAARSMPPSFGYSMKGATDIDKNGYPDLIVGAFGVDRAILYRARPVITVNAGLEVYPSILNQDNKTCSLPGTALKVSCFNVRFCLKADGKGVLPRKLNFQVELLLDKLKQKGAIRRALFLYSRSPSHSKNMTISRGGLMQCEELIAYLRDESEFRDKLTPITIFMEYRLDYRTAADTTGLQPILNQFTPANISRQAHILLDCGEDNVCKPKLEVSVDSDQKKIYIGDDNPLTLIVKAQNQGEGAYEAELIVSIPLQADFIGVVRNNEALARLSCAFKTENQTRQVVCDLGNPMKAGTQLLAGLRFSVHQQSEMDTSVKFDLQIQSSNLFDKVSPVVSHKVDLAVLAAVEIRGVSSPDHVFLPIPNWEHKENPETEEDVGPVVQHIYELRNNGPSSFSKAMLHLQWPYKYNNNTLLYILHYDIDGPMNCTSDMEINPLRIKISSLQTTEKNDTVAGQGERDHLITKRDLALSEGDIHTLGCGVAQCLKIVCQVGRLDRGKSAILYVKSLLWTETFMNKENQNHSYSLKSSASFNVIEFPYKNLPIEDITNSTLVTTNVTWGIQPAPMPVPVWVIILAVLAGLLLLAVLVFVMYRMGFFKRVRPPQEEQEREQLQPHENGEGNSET
T1 sequence (P26012 43-769, chain 2 of 2): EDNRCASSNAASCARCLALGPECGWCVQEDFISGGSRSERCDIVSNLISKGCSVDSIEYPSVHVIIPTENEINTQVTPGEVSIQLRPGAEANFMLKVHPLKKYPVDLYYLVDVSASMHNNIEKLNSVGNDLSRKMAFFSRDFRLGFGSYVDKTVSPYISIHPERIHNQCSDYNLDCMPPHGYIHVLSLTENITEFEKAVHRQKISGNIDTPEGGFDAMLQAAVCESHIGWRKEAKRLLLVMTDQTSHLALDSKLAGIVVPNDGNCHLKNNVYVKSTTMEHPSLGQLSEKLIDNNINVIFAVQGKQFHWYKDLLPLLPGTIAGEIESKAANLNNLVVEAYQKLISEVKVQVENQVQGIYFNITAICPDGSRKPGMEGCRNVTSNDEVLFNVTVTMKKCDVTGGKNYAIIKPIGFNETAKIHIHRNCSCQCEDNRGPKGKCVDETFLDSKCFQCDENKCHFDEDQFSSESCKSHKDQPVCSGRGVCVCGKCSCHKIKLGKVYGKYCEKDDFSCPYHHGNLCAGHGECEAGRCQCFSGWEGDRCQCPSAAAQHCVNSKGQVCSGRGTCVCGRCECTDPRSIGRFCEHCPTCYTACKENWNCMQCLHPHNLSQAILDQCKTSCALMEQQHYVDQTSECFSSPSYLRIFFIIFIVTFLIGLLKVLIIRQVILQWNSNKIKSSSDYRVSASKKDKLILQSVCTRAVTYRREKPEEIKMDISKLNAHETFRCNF
T3 sequence (P43406 31-988 limits assumed, chain 1 of 2): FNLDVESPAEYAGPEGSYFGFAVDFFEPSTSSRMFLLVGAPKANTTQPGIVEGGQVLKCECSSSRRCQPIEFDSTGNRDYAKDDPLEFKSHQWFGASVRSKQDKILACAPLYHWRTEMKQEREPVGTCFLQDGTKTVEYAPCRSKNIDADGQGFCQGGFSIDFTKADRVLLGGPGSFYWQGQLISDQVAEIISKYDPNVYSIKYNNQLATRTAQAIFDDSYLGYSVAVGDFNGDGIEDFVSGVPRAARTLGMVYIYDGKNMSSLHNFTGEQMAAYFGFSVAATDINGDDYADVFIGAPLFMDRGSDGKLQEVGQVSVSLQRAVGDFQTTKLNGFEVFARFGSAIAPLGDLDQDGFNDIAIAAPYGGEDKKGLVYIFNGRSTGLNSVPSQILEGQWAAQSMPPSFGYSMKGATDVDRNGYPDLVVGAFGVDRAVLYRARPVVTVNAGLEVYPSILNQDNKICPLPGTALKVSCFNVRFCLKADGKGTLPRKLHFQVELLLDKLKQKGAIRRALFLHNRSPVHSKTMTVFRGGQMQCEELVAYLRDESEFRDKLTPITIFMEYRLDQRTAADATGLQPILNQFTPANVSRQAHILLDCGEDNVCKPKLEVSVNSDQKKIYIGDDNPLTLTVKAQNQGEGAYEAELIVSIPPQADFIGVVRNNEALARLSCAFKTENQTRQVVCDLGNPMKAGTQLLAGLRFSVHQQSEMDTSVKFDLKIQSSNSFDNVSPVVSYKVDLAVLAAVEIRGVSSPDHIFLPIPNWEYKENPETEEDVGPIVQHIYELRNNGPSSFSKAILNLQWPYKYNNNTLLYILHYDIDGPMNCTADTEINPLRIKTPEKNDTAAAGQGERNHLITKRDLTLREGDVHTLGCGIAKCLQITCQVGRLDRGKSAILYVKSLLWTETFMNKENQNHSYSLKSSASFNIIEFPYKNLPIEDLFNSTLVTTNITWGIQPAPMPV
T3 sequence (Q0VBD0 43-681 limits assumed, chain 2 of 2): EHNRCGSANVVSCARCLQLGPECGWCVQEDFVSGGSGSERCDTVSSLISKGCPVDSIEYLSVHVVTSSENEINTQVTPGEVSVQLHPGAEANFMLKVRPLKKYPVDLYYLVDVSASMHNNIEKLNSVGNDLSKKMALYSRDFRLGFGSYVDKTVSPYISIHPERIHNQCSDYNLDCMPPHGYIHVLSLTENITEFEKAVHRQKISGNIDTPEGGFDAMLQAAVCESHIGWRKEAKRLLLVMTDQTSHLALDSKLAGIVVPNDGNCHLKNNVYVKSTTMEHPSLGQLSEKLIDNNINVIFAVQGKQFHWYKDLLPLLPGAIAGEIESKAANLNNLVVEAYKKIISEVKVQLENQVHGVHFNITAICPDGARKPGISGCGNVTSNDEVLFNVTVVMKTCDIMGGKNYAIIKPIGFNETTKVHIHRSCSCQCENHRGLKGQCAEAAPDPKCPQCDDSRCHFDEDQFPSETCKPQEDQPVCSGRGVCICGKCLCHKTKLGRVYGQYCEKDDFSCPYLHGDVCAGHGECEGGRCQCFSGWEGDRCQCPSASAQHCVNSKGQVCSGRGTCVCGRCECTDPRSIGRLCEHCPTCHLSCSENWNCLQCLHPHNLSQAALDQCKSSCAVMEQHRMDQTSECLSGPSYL
T2 sequence (P06756 31-992 limits assumed, chain 1 of 2): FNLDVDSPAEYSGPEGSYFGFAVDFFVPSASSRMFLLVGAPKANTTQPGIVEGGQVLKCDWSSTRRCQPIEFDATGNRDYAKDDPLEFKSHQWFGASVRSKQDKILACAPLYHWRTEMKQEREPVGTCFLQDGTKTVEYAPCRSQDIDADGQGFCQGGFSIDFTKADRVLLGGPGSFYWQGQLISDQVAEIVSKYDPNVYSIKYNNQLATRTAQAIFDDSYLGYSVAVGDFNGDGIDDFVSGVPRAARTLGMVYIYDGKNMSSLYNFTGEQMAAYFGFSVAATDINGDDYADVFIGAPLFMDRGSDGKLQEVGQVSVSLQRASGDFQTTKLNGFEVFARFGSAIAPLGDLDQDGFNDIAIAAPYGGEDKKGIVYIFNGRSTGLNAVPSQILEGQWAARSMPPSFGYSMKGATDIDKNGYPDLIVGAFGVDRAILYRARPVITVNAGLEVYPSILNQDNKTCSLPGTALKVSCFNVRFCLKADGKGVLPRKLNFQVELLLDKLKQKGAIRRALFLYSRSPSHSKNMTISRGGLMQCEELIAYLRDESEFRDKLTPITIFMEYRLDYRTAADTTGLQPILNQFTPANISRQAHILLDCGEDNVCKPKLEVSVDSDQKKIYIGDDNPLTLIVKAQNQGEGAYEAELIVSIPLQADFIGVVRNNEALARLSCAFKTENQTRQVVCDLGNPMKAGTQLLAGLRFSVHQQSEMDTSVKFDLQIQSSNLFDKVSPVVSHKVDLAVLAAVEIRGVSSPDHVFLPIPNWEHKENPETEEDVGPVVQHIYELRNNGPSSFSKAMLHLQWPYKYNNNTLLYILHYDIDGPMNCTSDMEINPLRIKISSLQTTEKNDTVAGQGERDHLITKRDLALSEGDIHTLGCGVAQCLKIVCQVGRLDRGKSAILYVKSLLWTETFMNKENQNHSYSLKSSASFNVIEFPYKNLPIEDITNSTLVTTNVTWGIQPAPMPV
T2 sequence (P26012 43-684 limits assumed, chain 2 of 2): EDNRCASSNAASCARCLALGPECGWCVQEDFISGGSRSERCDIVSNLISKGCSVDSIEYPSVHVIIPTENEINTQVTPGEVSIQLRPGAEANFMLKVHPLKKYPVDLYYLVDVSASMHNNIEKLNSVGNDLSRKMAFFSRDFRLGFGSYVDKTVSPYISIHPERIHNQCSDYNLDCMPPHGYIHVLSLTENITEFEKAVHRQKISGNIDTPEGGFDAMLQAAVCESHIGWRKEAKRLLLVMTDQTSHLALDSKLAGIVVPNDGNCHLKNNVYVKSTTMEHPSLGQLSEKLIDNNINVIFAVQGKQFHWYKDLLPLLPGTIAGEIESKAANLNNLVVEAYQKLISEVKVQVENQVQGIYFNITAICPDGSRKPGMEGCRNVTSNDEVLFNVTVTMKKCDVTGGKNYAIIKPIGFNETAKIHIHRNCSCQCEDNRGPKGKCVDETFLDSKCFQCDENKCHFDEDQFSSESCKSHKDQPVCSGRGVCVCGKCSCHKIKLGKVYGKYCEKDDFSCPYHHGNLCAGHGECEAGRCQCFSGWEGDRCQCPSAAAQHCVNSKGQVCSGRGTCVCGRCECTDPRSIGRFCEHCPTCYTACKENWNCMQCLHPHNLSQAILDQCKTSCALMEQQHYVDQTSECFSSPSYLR

B1: ADWA16 (antibody, V domains shown)
VH: QVQLQQSGAELAKPGASMKMSCKASGYTFSSYWIYWVKQRPGQGLEWIGYINPTTGYTEYNQKFRDKATLTADKSSNTAYMQLSSLTSEDSAVYYCATEGGNWEDYWGQGTTLTVSS
VL: DIQMTQTTSSLSASLGDRVTISCRASQDISNYLNWYQQKPDGTVKLLIYYTSRLYSGVPSRFSGSGSGTDYSLTISNLEPKDIATYYCQQFSELPRTFGGGTKLEIK
notes: Murine IgG, detected with anti-mouse secondary antibody; also called parent murine IgG; murine parent ADWA16
IC50, inhibition of SNB19 cell adhesion to TGFβ1-LAP [1]: 1.1 nM
IC50, inhibition of TGFβ activation (SNB19 / TMLC luciferase reporter co-culture) [1]: 364 pM
inhibition of adhesion of L229 cells to LAP (potency relative to ADWA11) [1]: ~10 fold
Kd [2]: 0.417 nM

B2: ADWA16-chimera (antibody, V domains shown)
VH: B1 VH
VL: B1 VL
notes: It was captured on anti-human Fab-CH1 tips and detected with anti-human secondary, so it has human constant regions; also called chimeric ADWA-16; chimeric version of the parent ADWA16 murine IgG
Kd [3]: 0.95 nM
Kd [4]: 21 nM
Kd [5]: 0.95 nM
Kd [6]: 21 nM
Kd [2]: 0.302 nM

B3: ADWA11 (antibody, V domains shown)
VH: EVQLQQSGAELVRPGAFVKLSCKASGFNIKDYYMNWVLQRPEQGLEWIGWIDPDNGNTIYDPKFQGKASITADTSSNTAYLQLSSLTSEDTAVYYCARRLLMDYWGQGTSVTVSS
VL: DIVMTQAAPSVPVTPGESVSISCRSTKSLLHFNGNTYLFWFLQRPGQSPQRLIYYMSNLASGVPDRFSGRGSGTDFTLRISRVEAEDVGVYYCMQSLEYPFTFGTGTKLEIK
notes: IgG; also called ADWA1l
EC50 (read off the curve) [7]: ~1 nM
IC50, inhibition of SNB19 cell adhesion to TGFb1 LAP [1]: 1440 pM
Kd [8]: 5.6 nM
Kd [9]: 1.04 nM

B4: ADWA16-3 (antibody, V domains shown)
VH: EVQLVESGGGLVQPGGSLRLSCAVSGYIFSSYWVYWVRQAPGKGLEWVGYINPTTGYTEYADSVKGRFTISRDNSKNTLYLQMNSLRAEDTAVYYCATEGGNWEDYWGQGTLVTVSS
VL: DIQMTQSPSSLSASVGDRVTITCRASQDISNYINWYQQKPGKAPKLLIYYTSRLYGGVPSRFSGSGSGTDFTLTISSLQPEDFATYYCQQFSELPRTFGQGTKVEIK
Kd [3]: 1.16 nM
Kd [4]: 3.15 nM
binding result [10]: no binding
binding result [11]: no binding
binding result [12]: no binding
IC50, inhibition of TGFβ activation (SNB19 / TMLC luciferase reporter co-culture) [1]: 1360 pM
Kd [13]: 0.389 nM
Kd [5]: 0.83 nM
Kd [6]: 5 nM
Kd [14]: 0.83 nM

B5: ADWA16-2 (antibody, V domains shown)
VH: B4 VH
VL: B4 VL with Q27K, I33L, G56S
Kd [5]: 2 nM
Kd [6]: 8.5 nM
Kd [2]: 0.498 nM

B6: ADWA16-4 (antibody, V domains shown)
VH: B4 VH
VL: B4 VL with Q27K
Kd [5]: 0.86 nM
Kd [6]: 8 nM
Kd [2]: 0.614 nM

B7: ADWA16-3.2 (antibody, V domains shown)
VH: B4 VH with N52S, E59V
VL: B4 VL
notes: also called humanized derivative of ADWA16
Kd [3]: 0.688 nM
Kd [4]: 1.06 nM
EC50 (read off the curve) [7]: ~0.4 nM
binding result [10]: no binding
binding result [11]: no binding
binding result [12]: no binding
IC50, inhibition of SNB19 cell adhesion to TGFb1 LAP [1]: 650 pM
IC50, inhibition of SNB19 cell adhesion to TGFβ1-LAP [1]: 2.1 nM
IC50, inhibition of TGFβ activation (SNB19 / TMLC luciferase reporter co-culture) [1]: 580 pM
Kd [8]: 1.1 nM
Kd [15]: 0.392 nM
Kd [16]: 0.512 nM

B8: ADWA16-1 (antibody, V domains shown)
VH: B4 VH
VL: B4 VL with G56S
Kd [5]: 0.73 nM
Kd [6]: 4.8 nM
Kd [2]: 0.459 nM
